Measurements reported in the supplement of paper PMC10567573.

B1: TMEM120A (parent)
chain: YQSFVQFLQYYYQSGCLYRLRALG
B2: ALDH8A1 (parent)
chain: RVAKKLQSGLVWTNCWLIRELNLP

Variants of: B1
Assay: protein stability index of a GFP-peptide fusion (GPS, HEK-293T) (PSI 1-6); higher = more stable
Settings: c terminus: a fixed tail appended
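Note: lentivirally expressed fusions sorted by FACS into six bins by GFP to DsRed ratio, PSI derived from sequencing read proportions per bin multiplied by bin number.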

Going from S3T to R21Q, the protein stability index falls from 2.88 to 2.76.

Compared with L23Y, R19W is higher in protein stability index: 2.61 for the first, 3.14 for the second.

First: Q2E
Second: S14I
The protein stability index of the first is lower: 3.02 for the first, 3.42 for the second.

Compared with L17F, L17D is higher in protein stability index: 2.63 for the first, 3.82 for the second.

First: Y1K
Second: Y1I
The protein stability index of the first is lower: 2.19 for the first, 2.24 for the second.

Compared with F4M, F4D is lower in protein stability index: 2.91 for the first, 1.31 for the second.

Compared with Y12M, F7S is lower in protein stability index: 3.19 for the first, 1.04 for the second.

With G15L the protein stability index was 3.31.

Variants of: B2
Assay: as above
Settings: c terminus: a fixed tail appended

First: I18T
Second: I18E
The protein stability index of the first is higher: 2.57 for the first, 2.2 for the second.

Compared with I18K, I18N is lower in protein stability index: 4.38 for the first, 2.46 for the second.

Going from I18D to I18Y, the protein stability index rises from 1.73 to 1.89.

Going from I18M to I18S, the protein stability index rises from 2.47 to 3.62.

Compared with I18P, I18H is higher in protein stability index: 1.3 for the first, 1.89 for the second.

First: A3E
Second: A3I
The protein stability index of the first is higher: 3.61 for the first, 3.48 for the second.

First: A3R
Second: A3P
The protein stability index of the first is lower: 2.03 for the first, 3.51 for the second.

Going from A3Y to A3W, the protein stability index rises from 1.16 to 2.5.

Going from A3M to E20Y, the protein stability index falls from 3.44 to 3.02.

Compared with E20P, E20M is lower in protein stability index: 2.22 for the first, 1.33 for the second.

First: E20T
Second: G9T
The protein stability index of the first is higher: 3.57 for the first, 3.22 for the second.

First: G9E
Second: G9M
The protein stability index of the first is lower: 1.72 for the first, 3.32 for the second.

Going from G9W to L23E, the protein stability index rises from 2.58 to 2.88.

Compared with L23Q, L23M is higher in protein stability index: 3.48 for the first, 3.59 for the second.

Going from L21H to L21D, the protein stability index rises from 2.79 to 3.05.

First: L21W
Second: L21G
The protein stability index of the first is lower: 2.9 for the first, 5.81 for the second.

Going from T13K to T13E, the protein stability index falls from 2.59 to 1.95.

Compared with T13H, V11W is higher in protein stability index: 1.57 for the first, 4.66 for the second.

Going from V11L to V11D, the protein stability index falls from 2.91 to 2.32.

Compared with V11P, V11E is higher in protein stability index: 2.11 for the first, 2.29 for the second.

Compared with R19N, R19F is lower in protein stability index: 3.94 for the first, 1.5 for the second.

First: R19L
Second: R19S
The protein stability index of the first is lower: 2.18 for the first, 2.44 for the second.

First: R19P
Second: W16A
The protein stability index of the first is lower: 1.53 for the first, 2.71 for the second.

Going from W16N to W16H, the protein stability index falls from 2.1 to 1.92.

Going from W16P to W16G, the protein stability index rises from 1.22 to 1.32.

Compared with W16T, W16M is higher in protein stability index: 2.09 for the first, 3.3 for the second.

Compared with W16L, W16E is lower in protein stability index: 1.85 for the first, 1.43 for the second.

Going from W16K to W16Q, the protein stability index falls from 2.08 to 1.03.

Going from W16D to W16F, the protein stability index rises from 1.63 to 2.47.

Going from Q7L to Q7N, the protein stability index falls from 4.65 to 2.29.

Going from Q7W to Q7K, the protein stability index falls from 2.85 to 2.17.

Compared with Q7Y, Q7P is higher in protein stability index: 2.48 for the first, 2.97 for the second.

Going from Q7M to S8A, the protein stability index rises from 1.85 to 3.67.

Compared with S8H, S8I is higher in protein stability index: 1.63 for the first, 1.71 for the second.

Compared with S8T, S8V is higher in protein stability index: 1.94 for the first, 3.65 for the second.

First: S8E
Second: R1T
The protein stability index of the first is lower: 2.9 for the first, 3.94 for the second.

Compared with R1P, R1K is higher in protein stability index: 2.46 for the first, 3.98 for the second.

First: R1L
Second: R1H
The protein stability index of the first is higher: 5 for the first, 2.09 for the second.

Going from R1N to R1F, the protein stability index falls from 3.5 to 3.15.

Compared with R1C, R1V is higher in protein stability index: 1.74 for the first, 2.44 for the second.

First: R1D
Second: N22P
The protein stability index of the first is lower: 2.04 for the first, 3.03 for the second.

Going from N22Y to N22K, the protein stability index rises from 3.15 to 4.74.

Going from N22G to N22I, the protein stability index rises from 2.7 to 3.01.

Compared with N22D, N22T is lower in protein stability index: 5.55 for the first, 2.17 for the second.

Going from V2S to V2W, the protein stability index falls from 3.15 to 2.54.

Compared with V2P, V2E is lower in protein stability index: 2.08 for the first, 1.9 for the second.

Going from V2D to V2I, the protein stability index rises from 1.92 to 3.68.

Going from V2K to V2N, the protein stability index rises from 1.36 to 2.49.

Compared with V2T, V2H is higher in protein stability index: 2.33 for the first, 4.07 for the second.

Compared with N14Y, N14V is lower in protein stability index: 1.59 for the first, 1.22 for the second.

Going from N14F to N14I, the protein stability index falls from 2.33 to 1.2.

Compared with N14M, N14P is higher in protein stability index: 2.04 for the first, 2.06 for the second.

Going from N14K to N14D, the protein stability index falls from 2.73 to 2.19.

First: N14L
Second: K5C
The protein stability index of the first is lower: 2.19 for the first, 3.67 for the second.

Going from K5Y to K5T, the protein stability index falls from 3.1 to 2.88.

Going from K5H to K5Q, the protein stability index falls from 3.18 to 1.34.

Going from K5L to K5M, the protein stability index rises from 3.02 to 3.19.

Compared with K5I, K5V is higher in protein stability index: 2.13 for the first, 4.01 for the second.

Compared with C15I, C15H is higher in protein stability index: 2.44 for the first, 3.92 for the second.

Compared with C15P, C15R is higher in protein stability index: 2.17 for the first, 3.14 for the second.

Compared with C15A, C15L is higher in protein stability index: 2.39 for the first, 2.64 for the second.

First: C15V
Second: C15E
The protein stability index of the first is higher: 2.65 for the first, 1.8 for the second.

Compared with L6K, L6P is lower in protein stability index: 2.56 for the first, 1.95 for the second.

First: L6T
Second: L6C
The protein stability index of the first is lower: 2.31 for the first, 3.03 for the second.

First: L6M
Second: L6Q
The protein stability index of the first is higher: 3.2 for the first, 2.86 for the second.

Going from L6E to L6A, the protein stability index falls from 2.26 to 2.04.

Compared with K4F, K4R is higher in protein stability index: 2.22 for the first, 2.29 for the second.

Going from K4W to K4C, the protein stability index falls from 3.14 to 1.05.

Going from K4M to K4N, the protein stability index rises from 2.82 to 4.07.

First: K4H
Second: K4L
The protein stability index of the first is higher: 2.45 for the first, 1.98 for the second.

First: P24W
Second: P24A
The protein stability index of the first is higher: 3.34 for the first, 2.76 for the second.

Compared with P24Y, P24T is lower in protein stability index: 3.16 for the first, 2.19 for the second.

First: P24S
Second: L10R
The protein stability index of the first is lower: 2.25 for the first, 2.47 for the second.

Compared with L10T, L10D is lower in protein stability index: 2.97 for the first, 1.51 for the second.

First: L17I
Second: L17E
The protein stability index of the first is lower: 1.08 for the first, 2.77 for the second.

First: L17F
Second: L17Q
The protein stability index of the first is higher: 2.6 for the first, 1.32 for the second.
